{"source": "the RNAGym collection of RNA variant scans (doi:10.1093/molbev/msab373)", "parents": {"B1": {"name": "Azoarcus group I ribozyme (parent)", "chain": "GUGCCUUGCGCCGGGAAACCACGCAAGGGAUGGUGUCAAAUUCGGCGAAACCUAAGCGCCCGCCCGGGCGUAUGGCAACGCCGAGCCAAGCUUCGGCGCCUGCGCCGAUGAAGGUGUAGAGACUAGACGGCACCCACCUAAGGCAAACGCUAUGGUGAAGGCAUAGUCCAGGGAGUGGCGAAAGUCACACAAACCGG"}}}
{"variants_of": "B1", "assay": "reverse-splicing fitness (ratio to wild type); higher = more active; in vitro selection; Mg2+ level not given", "outline": "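An in vitro group I ribozyme library with randomized positions was T7-transcribed and gel-purified. In triplicate, 10 pmol RNA in EPPS pH 7.5 was reacted with 50 pmoles of a 30-nt RNA substrate for 1 h at 37 °C across several added MgCl2 levels (1–48 mM), then stopped with EDTA. Products were reverse transcribed from a substrate-complementary primer, PCR-amplified and sequenced (HiSeq 4000). Fitness is a variant's read proportion after selection over that before, normalised to wild type.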"}
{"variant": "GUGCCUUGCGCCGGGAAACCACGCAAGGGAUGGUGUCAAAUUCGGCGAAACCUAAGCGCCCGCCCGGGCGUAUGGCAACGCUGAGCCAAGCUUCGGCGCCUGCGCCGAUGAAGGUGUAGGGACUAGACGGCACCCACCUAAGGCGAACGAUAUGGUGAAGGCAUAGUCUAGGGAGAGGCGAAAGUCACACAAACCGG", "reverse-splicing fitness": 0.0217}
{"variant": "GUGCCUUGCGCCGGGAAACCACGCAAGGGAUGGUGUCAAAUUCGGCGAAACCUAAGCGCCCGCCCGGGCGUAUGGCAACGCUGAGCCAAGCUUCGGCGCCUGCGCCGAUGAAGGUGUAGGGACUAGACGGCACCCACCUAAGGCCAACGCUAUGGUGAAGGCAUAGUCGAGGGAGCGGCGAAAGUCACACAAACCGG", "reverse-splicing fitness": 0.0161}
{"variant": "GUGCCUUGCGCCGGGAAACCACGCAAGGGAUGGUGUCAAAUUCGGCGAAACCUAAGCGCCCGCCCGGGCGUAUGGCAACGCUGAGCCAAGCUUCGGCGCCUGCGCCGAUGAAGGUGUAGGGACUAGACGGCACCCACCUAAGGCCAACGCUAUGGUGAAGGCAUAGUCGAGGGAGGGGCGAAAGUCACACAAACCGG", "reverse-splicing fitness": 0.00391}
{"variant": "GUGCCUUGCGCCGGGAAACCACGCAAGGGAUGGUGUCAAAUUCGGCGAAACCUAAGCGCCCGCCCGGGCGUAUGGCAACGCUGAGCCAAGCUUCGGCGCCUGCGCCGAUGAAGGUGUAGGGACUAGACGGCACCCACCUAAGGCCAACGCUAUGGUGAAGGCAUAGUCGAGGGAGAGGCGAAAGUCACACAAACCGG", "reverse-splicing fitness": 0.0276}
{"variant": "GUGCCUUGCGCCGGGAAACCACGCAAGGGAUGGUGUCAAAUUCGGCGAAACCUAAGCGCCCGCCCGGGCGUAUGGCAACGCUGAGCCAAGCUUCGGCGCCUGCGCCGAUGAAGGUGUAGGGACUAGACGGCACCCACCUAAGGCGAACGAUAUGGUGAAGGCAUAGUCAAGGGAGCGGCGAAAGUCACACAAACCGG", "reverse-splicing fitness": 0.0191}
{"variant": "GUGCCUUGCGCCGGGAAACCACGCAAGGGAUGGUGUCAAAUUCGGCGAAACCUAAGCGCCCGCCCGGGCGUAUGGCAACGCUGAGCCAAGCUUCGGCGCCUGCGCCGAUGAAGGUGUAGGGACUAGACGGCACCCACCUAAGGCGAACGAUAUGGUGAAGGCAUAGUCAAGGGAGAGGCGAAAGUCACACAAACCGG", "reverse-splicing fitness": 0.018}
{"variant": "GUGCCUUGCGCCGGGAAACCACGCAAGGGAUGGUGUCAAAUUCGGCGAAACCUAAGCGCCCGCCCGGGCGUAUGGCAACGCUGAGCCAAGCUUCGGCGCCUGCGCCGAUGAAGGUGUAGGGACUAGACGGCACCCACCUAAGGCGAACGAUAUGGUGAAGGCAUAGUCAAGGGAGGGGCGAAAGUCACACAAACCGG", "reverse-splicing fitness": 0.00457}
{"variant": "GUGCCUUGCGCCGGGAAACCACGCAAGGGAUGGUGUCAAAUUCGGCGAAACCUAAGCGCCCGCCCGGGCGUAUGGCAACGCUGAGCCAAGCUUCGGCGCCUGCGCCGAUGAAGGUGUAGGGACUAGACGGCACCCACCUAAGGCCAACGCUAUGGUGAAGGCAUAGUCUAGGGAGCGGCGAAAGUCACACAAACCGG", "reverse-splicing fitness": 0.0127}
{"variant": "GUGCCUUGCGCCGGGAAACCACGCAAGGGAUGGUGUCAAAUUCGGCGAAACCUAAGCGCCCGCCCGGGCGUAUGGCAACGCUGAGCCAAGCUUCGGCGCCUGCGCCGAUGAAGGUGUAGGGACUAGACGGCACCCACCUAAGGCCAACGCUAUGGUGAAGGCAUAGUCUAGGGAGAGGCGAAAGUCACACAAACCGG", "reverse-splicing fitness": 0.0224}
{"variant": "GUGCCUUGCGCCGGGAAACCACGCAAGGGAUGGUGUCAAAUUCGGCGAAACCUAAGCGCCCGCCCGGGCGUAUGGCAACGCUGAGCCAAGCUUCGGCGCCUGCGCCGAUGAAGGUGUAGGGACUAGACGGCACCCACCUAAGGCCAACGCUAUGGUGAAGGCAUAGUCUAGGGAGGGGCGAAAGUCACACAAACCGG", "reverse-splicing fitness": 0.00314}
{"variant": "GUGCCUUGCGCCGGGAAACCACGCAAGGGAUGGUGUCAAAUUCGGCGAAACCUAAGCGCCCGCCCGGGCGUAUGGCAACGCUGAGCCAAGCUUCGGCGCCUGCGCCGAUGAAGGUGUAGGGACUAGACGGCACCCACCUAAGGCCAACGUUAUGGUGAAGGCAUAGUCCAGGGAGCGGCGAAAGUCACACAAACCGG", "reverse-splicing fitness": 0.00744}
{"variant": "GUGCCUUGCGCCGGGAAACCACGCAAGGGAUGGUGUCAAAUUCGGCGAAACCUAAGCGCCCGCCCGGGCGUAUGGCAACGCUGAGCCAAGCUUCGGCGCCUGCGCCGAUGAAGGUGUAGGGACUAGACGGCACCCACCUAAGGCCAACGUUAUGGUGAAGGCAUAGUCCAGGGAGGGGCGAAAGUCACACAAACCGG", "reverse-splicing fitness": 0.00347}
{"variant": "GUGCCUUGCGCCGGGAAACCACGCAAGGGAUGGUGUCAAAUUCGGCGAAACCUAAGCGCCCGCCCGGGCGUAUGGCAACGCUGAGCCAAGCUUCGGCGCCUGCGCCGAUGAAGGUGUAGGGACUAGACGGCACCCACCUAAGGCCAACGCUAUGGUGAAGGCAUAGUCAAGGGAGAGGCGAAAGUCACACAAACCGG", "reverse-splicing fitness": 0.00959}
{"variant": "GUGCCUUGCGCCGGGAAACCACGCAAGGGAUGGUGUCAAAUUCGGCGAAACCUAAGCGCCCGCCCGGGCGUAUGGCAACGCUGAGCCAAGCUUCGGCGCCUGCGCCGAUGAAGGUGUAGGGACUAGACGGCACCCACCUAAGGCCAACGCUAUGGUGAAGGCAUAGUCAAGGGAGCGGCGAAAGUCACACAAACCGG", "reverse-splicing fitness": 0.00742}
{"variant": "GUGCCUUGCGCCGGGAAACCACGCAAGGGAUGGUGUCAAAUUCGGCGAAACCUAAGCGCCCGCCCGGGCGUAUGGCAACGCUGAGCCAAGCUUCGGCGCCUGCGCCGAUGAAGGUGUAGGGACUAGACGGCACCCACCUAAGGCCAACGCUAUGGUGAAGGCAUAGUCAAGGGAGGGGCGAAAGUCACACAAACCGG", "reverse-splicing fitness": 0.00332}
